Measured values published in patent US20110217237A1 (AbbVie / Abbott, published 2011).
Where two headings read alike, the source gives them in different places. Each block holds one binder with its values, some of them ahead of it.

Experiments:
mouse DLL4 on cells [1] = biological target: T1, mouse DLL4 on cells (mouse, UniProt Q9JI71 27-686); test: competition FACS: huNotch-1-biotin to DLL4 cells
T1 construct: whole, on cells; also called mouse DLL4-293G; mu DLL4 cells
Description: (§1) Notch blocking assay: Briefly, stable cell lines overexpressing cell-surface DLL4 were harvested from tissue culture flasks and re-suspended in phosphate buffered saline (PBS) containing 1% bovine serum albumin and 1 mM CaCl₂ (FACS buffer). HEK293G-DLL4 cells were dispensed into 96-well plate (v-bottom) at 1.5×10⁵ cells/well in FACS buffer. After spinning down cells and discarding the supernatant, 50 μL of purified IgG with appropriate dilution were added to each well, and incubated on ice at 4° C. for 60 minutes, followed by addition of 50 μL/well of Notch1-biotin at 0.2 μg/mL for human DLL4-293G or 2.0 μg/mL for mouse DLL4-293G (1.0 or 0.1 μg/mL final) for an additional 1 hour incubation ice at 4° C. After washing the cells two times with FACS buffer, 50 μL of R-phycoerythrin-conjugated streptavidin (1:150 dilution in FACS buffer) (Jackson ImmunoResearch, West Grove, Pa., Cat.#016-110-084) were added. Following an incubation on ice (4° C., 60 minutes), cells were washed three times and resuspended in FACS buffer. Fluorescence was measured using a Becton Dickinson FACSCalibur-HTS (Becton Dickinson, San Jose, Calif.). Data were analyzed using Graphpad Prism software, and IC₅₀ values were reported as the concentration of antibody to achieve 50% reduction of Notch1 bound to DLL4 expressing cells. […]

[2] = biological target: T2, human DLL4, full length, on cells (human, UniProt Q9NR61 27-685); test: competition FACS: huNotch-1-biotin to DLL4 cells
T2 construct: also called huDLL4 cells; human DLL4-293G
Description: as §1

[3] = biological target: T3, human DLL4 extracellular domain (human, UniProt Q9NR61 27-529); test: SPR (Biacore)
T3 construct: purified recombinant ECD; biotin-labelled or 6xHis-tagged depending on the assay; also called huDLL4 ECD; hu DLL4 ECD

[4] = biological target: T4, rat DLL4 extracellular domain (rat, UniProt D3ZHH1 28-530); test: SPR (Biacore)
T4 construct: extracellular domain; also called ratDLL4 ECD
How it was run: (§2)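 Purified anti-DLL4 antibodies (1 μg/ml) captured on immobilized goat anti-human Fc, with DLL4 ECD injected as analyte; HBS-EPB running buffer (pH 7.4), 25° C, referenced against capture-only surface. On/off rates from global 1:1 Langmuir fit; KD = Koff/Kon.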

[5] = biological target: T5, mouse DLL4 extracellular domain (mouse, UniProt Q9JI71 27-532); test: SPR (Biacore)
T5 construct: extracellular domain; also called muDLL4 ECD; murine DLL4
How it was run: as §2

[6] = biological target: T3, human DLL4 extracellular domain; test: binding ELISA, DLL4 ECD
[7] = biological target: T5, mouse DLL4 extracellular domain; test: binding ELISA, DLL4 ECD
[8] = biological target: T3, human DLL4 extracellular domain; test: competition ELISA: biotin-DLL4 ECD to coated huNotch-1
Description: (§3) Plates were then washed 3 times with wash buffer (PBS, 0.05% Tween-20) and blocked with 200 μl/well blocking buffer (D-PBS, 1% BSA, 1 mM CaCl₂, 0.05% Tween-20) for 1 hour at 25° C. While blocking, biotin labeled DLL4 extracellular domain (14 nM) was mixed with antibody (30 pM-66 nM, 3-fold serial dilution in blocking buffer) for 1 hour at 25° C. with shaking. Assay plates were washed after blocking, and incubated with DLL4/antibody mixtures (100 μl/well, 1 hour at 25° C. with shaking). Plates were washed again and 100 μl/well streptavidin conjugated with HRP (Fitzgerald #65R-S104PHRPx, diluted 1:5,000 in blocking buffer) was added for 1 hour at 25° C. with shaking. After a final wash, plates were developed using 100 μl/well substrate (TMB Sigma #T8665), and the reaction was stopped using 100 μl/well 1N HCl, and the absorbance was read at 450 nm. Data were analyzed using Graphpad Prism software and IC₅₀ values were reported as the concentration of antibody to achieve 50% reduction of DLL4 bound to Notch1.
(§4) Further characterization determined 37D10 and 40B10 were identical rat mAbs.

[9] = biological target: T5, mouse DLL4 extracellular domain; test: as above
Description: as §3, §4

mouse DLL4 on cells [10] = biological target: T1, mouse DLL4 on cells; test: FACS, DLL4 cells
Description: (§5) Stable cell lines overexpressing cell-surface DLL4 were harvested from tissue culture flasks, washed four times and resuspended in phosphate buffered saline (PBS) containing 1% bovine serum albumin and 1 mM CaCl₂ (FACS buffer). 1.5×10⁵ cells were incubated with antibodies at various concentrations in FACS buffer for 60 minutes on ice. […] Following an incubation on ice (4° C., 60 minutes), cells were washed three times and resuspended in FACS buffer. Fluorescence was measured using a Becton Dickinson FACSCalibur-HTS (Becton Dickinson, San Jose, Calif., US). Data were analyzed using Graphpad Prism software and EC₅₀ values were reported as the concentration of antibody to achieve 50% of maximal DLL4 antibodies binding to DLL4 expressing cells. […]

[11] = biological target: T2, human DLL4, full length, on cells; test: FACS, DLL4 cells
Description: as §5

[12] = biological target: T3, human DLL4 extracellular domain; test: competition ELISA vs Notch-1
[13] = biological target: T5, mouse DLL4 extracellular domain; test: competition ELISA vs Notch-1
[14] = biological target: T2, human DLL4, full length, on cells; test: cell-based or functional assay
[15] = biological target: T3, human DLL4 extracellular domain; test: SPR (Biacore); remark: listed apart in the source
Description: (§6) The BIACORE® surface plasmon resonance assay (Biacore, Inc., Piscataway, N.J., US) determines the affinity of antibodies with kinetic measurements of on-rate and off-rate constants. Binding of DLL4 antibodies to a purified recombinant DLL4 extracellular domain (ECD) was determined by surface plasmon resonance-based measurements with a Biacore® instrument (either a Biacore 2000, Biacore 3000, or Biacore T100; GE Healthcare, Piscataway, N.J., US) using running buffer HBS-EPB (10 mM HEPES [pH 7.4], 150 mM NaCl, 3 mM EDTA, 0.1 mg/ml BSA and 0.005% surfactant P20) at 25° C. For example, approximately 9000 RU of goat anti-human Fc specific polyclonal antibody (Thermo Fisher Scientific Inc., Rockford, Ill., US) diluted in 10 mM sodium acetate (pH 4.5) is directly immobilized across a CMS research grade biosensor chip using a standard amine coupling kit according to manufacturer's instructions and procedures at 25 μg/ml. Unreacted moieties on the biosensor surface were blocked with ethanolamine. For kinetic analysis, rate equations derived from the 1:1 Langmuir binding model were fitted simultaneously to multiple antigen injections (using global fit analysis) with the use of Scrubber 2 (BioLogic Software), Biacore Biaevaluation 4.0.1 software or Biacore T100 Evaluation software. Purified antibodies were diluted in running buffer for capture across goat anti-human Fc reaction surfaces. Antibodies to be captured as a ligand (1 μg/ml) were injected over reaction matrices at a flow rate of 10 μl/min. During the assay, all measurements were referenced against the capture surface alone (i.e., with no captured anti-DLL4 antibody). […] The equilibrium dissociation constant KD (M) of the reaction between antibodies and the target antigen was then calculated from the kinetic rate constants by the following formula: KD=Koff/Kₒₙ. Binding was recorded as a function of time and kinetic rate constants were calculated.

[16] = biological target: T6, cynomolgus monkey DLL4 extracellular domain (cynomolgus monkey); test: SPR (Biacore)
T6 construct: extracellular domain; also called cynoDLL4 ECD; Cyno DLL4
Description: as §6

mouse DLL4 on cells [17] = biological target: T1, mouse DLL4 on cells; test: FACS on cells expressing mouse DLL4

T1 sequence (Q9JI71 27-686): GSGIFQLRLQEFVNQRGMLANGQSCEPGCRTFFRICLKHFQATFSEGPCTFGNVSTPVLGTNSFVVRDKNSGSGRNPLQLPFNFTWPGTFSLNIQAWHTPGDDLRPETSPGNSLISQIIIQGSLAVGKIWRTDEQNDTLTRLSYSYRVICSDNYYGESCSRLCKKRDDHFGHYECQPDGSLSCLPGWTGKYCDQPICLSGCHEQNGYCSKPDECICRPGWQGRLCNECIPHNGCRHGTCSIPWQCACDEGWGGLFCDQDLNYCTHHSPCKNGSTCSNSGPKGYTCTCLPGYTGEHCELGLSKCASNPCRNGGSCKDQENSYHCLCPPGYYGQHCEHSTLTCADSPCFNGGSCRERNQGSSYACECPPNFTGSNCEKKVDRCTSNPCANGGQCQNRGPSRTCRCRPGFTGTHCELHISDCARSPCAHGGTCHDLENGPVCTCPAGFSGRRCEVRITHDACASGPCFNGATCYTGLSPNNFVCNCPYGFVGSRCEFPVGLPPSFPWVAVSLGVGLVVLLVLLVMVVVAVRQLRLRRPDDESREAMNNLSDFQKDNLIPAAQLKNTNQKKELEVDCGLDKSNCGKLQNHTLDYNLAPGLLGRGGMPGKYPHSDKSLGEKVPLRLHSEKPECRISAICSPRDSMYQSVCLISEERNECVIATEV
T2 sequence (Q9NR61 27-685 limits assumed): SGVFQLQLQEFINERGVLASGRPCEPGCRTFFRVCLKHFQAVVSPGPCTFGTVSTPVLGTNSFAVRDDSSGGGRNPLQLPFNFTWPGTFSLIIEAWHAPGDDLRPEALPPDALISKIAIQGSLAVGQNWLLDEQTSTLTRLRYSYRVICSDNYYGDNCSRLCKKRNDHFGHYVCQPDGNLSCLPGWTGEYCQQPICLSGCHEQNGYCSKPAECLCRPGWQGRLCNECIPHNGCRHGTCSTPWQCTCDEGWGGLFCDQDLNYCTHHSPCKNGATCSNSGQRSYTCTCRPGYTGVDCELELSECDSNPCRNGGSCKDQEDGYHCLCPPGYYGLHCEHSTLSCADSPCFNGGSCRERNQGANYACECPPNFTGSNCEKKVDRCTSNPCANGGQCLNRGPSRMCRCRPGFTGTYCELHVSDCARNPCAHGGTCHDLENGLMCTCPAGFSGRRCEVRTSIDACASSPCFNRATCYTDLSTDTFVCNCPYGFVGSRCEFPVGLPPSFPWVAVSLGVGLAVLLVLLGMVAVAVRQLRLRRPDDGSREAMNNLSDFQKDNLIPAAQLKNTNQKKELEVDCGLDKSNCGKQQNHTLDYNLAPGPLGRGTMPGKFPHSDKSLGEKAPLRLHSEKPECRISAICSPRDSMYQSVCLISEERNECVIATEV
T3 sequence (Q9NR61 27-529 limits assumed): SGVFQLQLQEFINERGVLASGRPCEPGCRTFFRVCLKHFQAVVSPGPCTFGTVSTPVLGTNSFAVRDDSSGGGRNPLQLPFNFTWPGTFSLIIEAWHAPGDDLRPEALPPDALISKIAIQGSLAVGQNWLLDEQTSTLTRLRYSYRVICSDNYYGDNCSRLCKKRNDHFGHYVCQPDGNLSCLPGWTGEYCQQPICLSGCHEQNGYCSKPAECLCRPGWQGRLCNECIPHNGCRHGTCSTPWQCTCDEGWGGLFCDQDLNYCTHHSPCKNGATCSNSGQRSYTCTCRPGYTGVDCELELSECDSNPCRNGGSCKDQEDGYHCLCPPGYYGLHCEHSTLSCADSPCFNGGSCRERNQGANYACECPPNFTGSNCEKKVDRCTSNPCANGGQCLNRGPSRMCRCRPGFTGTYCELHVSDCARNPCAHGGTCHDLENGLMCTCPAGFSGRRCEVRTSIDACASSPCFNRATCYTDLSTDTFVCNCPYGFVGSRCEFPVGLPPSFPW
T5 sequence (Q9JI71 27-532): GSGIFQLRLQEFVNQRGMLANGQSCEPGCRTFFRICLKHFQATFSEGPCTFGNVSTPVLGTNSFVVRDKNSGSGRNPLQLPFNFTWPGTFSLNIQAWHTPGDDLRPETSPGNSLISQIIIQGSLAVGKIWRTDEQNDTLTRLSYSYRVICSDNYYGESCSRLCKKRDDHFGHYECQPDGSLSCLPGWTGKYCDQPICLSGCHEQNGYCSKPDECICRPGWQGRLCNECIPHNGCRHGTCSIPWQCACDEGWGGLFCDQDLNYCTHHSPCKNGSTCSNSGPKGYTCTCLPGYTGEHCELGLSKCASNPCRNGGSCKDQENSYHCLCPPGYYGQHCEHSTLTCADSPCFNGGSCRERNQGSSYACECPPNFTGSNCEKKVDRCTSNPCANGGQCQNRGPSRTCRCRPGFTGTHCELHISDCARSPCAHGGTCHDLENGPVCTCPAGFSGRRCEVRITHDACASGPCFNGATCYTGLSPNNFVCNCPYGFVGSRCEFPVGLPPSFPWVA
T4 sequence (D3ZHH1 28-530): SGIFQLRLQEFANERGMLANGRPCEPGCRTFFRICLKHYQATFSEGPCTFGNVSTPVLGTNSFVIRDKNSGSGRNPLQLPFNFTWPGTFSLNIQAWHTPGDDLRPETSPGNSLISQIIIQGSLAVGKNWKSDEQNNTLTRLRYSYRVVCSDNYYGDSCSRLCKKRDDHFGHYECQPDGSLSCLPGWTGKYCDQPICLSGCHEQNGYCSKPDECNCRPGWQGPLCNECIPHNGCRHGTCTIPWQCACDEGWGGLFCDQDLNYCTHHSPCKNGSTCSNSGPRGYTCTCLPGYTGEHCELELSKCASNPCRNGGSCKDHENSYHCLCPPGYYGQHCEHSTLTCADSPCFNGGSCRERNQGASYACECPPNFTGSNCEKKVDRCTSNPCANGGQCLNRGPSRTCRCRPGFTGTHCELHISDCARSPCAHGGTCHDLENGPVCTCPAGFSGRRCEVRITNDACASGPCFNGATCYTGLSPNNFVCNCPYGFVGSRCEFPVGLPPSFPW

IC50 (mouse DLL4 on cells [1]): 0.8 nM
IC50 [2]: 8.4 nM
Kd [3]: 6 nM
binding result [4]: no binding
Kd [5]: 23 nM
koff [5]: 0.0029 s⁻¹
kon [5]: 130000 M⁻¹ s⁻¹
EC50 [6]: 0.06 nM
EC50 [7]: 0.11 nM
IC50 [8]: 0.78 nM
IC50 [9]: 0.79 nM
EC50 (mouse DLL4 on cells [10]): 0.8 nM
EC50 [11]: 34.8 nM
IC50 [12]: 0.5 nM
IC50 [13]: 1.1 nM
Notch activation Inhibition (IC50, nM), huDLL4 cell/Notch reporter cells [14]: 2.9 nM
Kd [15]: 5.8 nM
koff [15]: 0.0011 s⁻¹
kon [15]: 190000 M⁻¹ s⁻¹
Kd [16]: 8.1 nM
koff [16]: 0.00093 s⁻¹
kon [16]: 110000 M⁻¹ s⁻¹
B1: 1A11 rat anti-DLL4 monoclonal antibody (antibody, rat IgG1, V domains shown)
VH: EVQLVESGGGLVQPGRSMKLSCAASGFTFRNFPMAWVRQAPTRGLEWVATISSSDGTTYYRDSVKGRFTISRDNAKSTLYLQVNSLRSEDTATYYCSRGYYNSPFAYWGQGTLVTVSS
VL: DIQMTQSPASLSASLGETVTIECRASEDIYSNLAWYQQKPGNSPQLLIFDTNNLADGVPSRFSGSGSGTQSSLKINSLQSEDVASYFCQQYNNYPPTFGGGTKLELKR
notes: rat IgG1/K hybridoma mAb; also called MC13-1A11.2E1; 1A11 (rat mAb)

IC50 [2]: 1.7 nM
binding result [4]: no binding
EC50 [6]: 0.06 nM
binding result [7]: no binding
IC50 [8]: 3.63 nM
EC50 [11]: 1.2 nM
binding result (mouse DLL4 on cells [17]): no binding
Notch activation Inhibition (IC50, nM), huDLL4 cell/Notch reporter cells [14]: 0.5 nM
Kd [15]: 0.3 nM
koff [15]: 0.00011 s⁻¹
kon [15]: 400000 M⁻¹ s⁻¹
Kd [16]: 0.4 nM
koff [16]: 9.8e-05 s⁻¹
kon [16]: 260000 M⁻¹ s⁻¹
B2: 38H12 rat anti-DLL4 monoclonal antibody (antibody, rat IgG2a, V domains shown)
VH: EVQLVESGGGLVQPGRSLKLSCAASGFTFSNYGMYWIRQAPTKGLQWVAFISHGGGITYYRDSVKGRFTISRDNAKSTLYLQMDSLRSEDTATYHCAALNWELGIDYWGQGVMVTVSS
VL: DIQMTQSPASLSASLGETISIECRASEDIYSNLAWYQKKSGKSPQLLIYAANRLQDGVPSRFSGSGSGTQYSLKISGMQPEDEGDYFCLQGSKFPLTFGSGTKLEIKR
notes: rat IgG2a/k hybridoma mAb; also called MC10-38H12.2G8; 38H12 rat mAb
